# Test results reported in patent US20120134993A1.
# Legend:
# [1] = molecular target: human FGF-9 (human) (UniProt P31371); test: cell-based or functional assay
# [2] = molecular target: recombinant human FGF-8b (human) (UniProt P55075); test: cell-based or functional assay
# [3] = molecular target: recombinant human FGF1 (human) (UniProt P05230); test: cell-based or functional assay
# [4] = molecular target: recombinant human FGF2 (human) (UniProt P09038); test: cell-based or functional assay
# [5] = molecular target: recombinant human FGF4 (human) (UniProt P08620); test: cell-based or functional assay
# recombinant human FGF4 (human), sequence (P08620 31-206 limits assumed): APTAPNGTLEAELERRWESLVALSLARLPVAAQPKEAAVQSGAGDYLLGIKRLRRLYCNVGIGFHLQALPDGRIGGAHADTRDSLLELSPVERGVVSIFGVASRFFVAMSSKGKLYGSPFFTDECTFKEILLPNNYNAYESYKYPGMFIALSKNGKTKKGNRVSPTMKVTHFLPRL
# [6] = molecular target: recombinant human FGF6 (human) (UniProt P10767); test: cell-based or functional assay
# recombinant human FGF6 (human), sequence (P10767 83-208 limits assumed): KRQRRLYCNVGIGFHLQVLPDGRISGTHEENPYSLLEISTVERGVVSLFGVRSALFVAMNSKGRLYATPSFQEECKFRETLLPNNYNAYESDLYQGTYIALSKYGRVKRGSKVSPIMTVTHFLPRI
# [7] = molecular target: recombinant human FGF-17 (human) (UniProt O60258); test: direct binding ELISA, FGF-17 coated, FGFR-Fc titrated with heparin, anti-human Fc-HRP
# recombinant human FGF-17 (human), sequence (O60258 23-216 limits assumed): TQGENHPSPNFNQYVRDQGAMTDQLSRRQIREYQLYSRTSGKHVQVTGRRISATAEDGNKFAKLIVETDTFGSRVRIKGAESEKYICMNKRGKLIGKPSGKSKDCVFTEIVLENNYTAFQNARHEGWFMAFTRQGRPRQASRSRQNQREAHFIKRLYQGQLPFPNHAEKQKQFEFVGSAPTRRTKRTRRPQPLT
# [8] = molecular target: recombinant human FGF-8b (human) (UniProt P55075); test: direct binding ELISA, FGF-8b coated, FGFR-Fc titrated with heparin, anti-human Fc-HRP
# [9] = molecular target: human VEGF-A (human) (UniProt P15692); test: SPR (Biacore T100), VEGF-A immobilized, 100 nM VEGFR-2-Fc5 injected, 1:1 dissociation fit
# human VEGF-A (human), sequence (P15692 other isoform, or with tags, fused parts or gaps limits assumed): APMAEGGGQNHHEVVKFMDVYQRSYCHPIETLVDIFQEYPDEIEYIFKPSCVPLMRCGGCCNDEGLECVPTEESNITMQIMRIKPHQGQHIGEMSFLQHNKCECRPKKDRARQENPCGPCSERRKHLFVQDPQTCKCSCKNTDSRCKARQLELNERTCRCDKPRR
# recombinant human FGF-8b (human), sequence (P55075 other isoform, or with tags, fused parts or gaps limits assumed): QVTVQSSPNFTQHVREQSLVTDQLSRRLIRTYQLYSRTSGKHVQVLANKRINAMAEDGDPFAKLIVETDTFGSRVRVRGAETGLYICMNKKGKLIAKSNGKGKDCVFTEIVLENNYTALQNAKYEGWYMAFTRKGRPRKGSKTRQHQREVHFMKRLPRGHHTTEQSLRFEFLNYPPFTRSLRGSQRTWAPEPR
# recombinant human FGF2 (human), sequence (P09038 143-288 limits assumed): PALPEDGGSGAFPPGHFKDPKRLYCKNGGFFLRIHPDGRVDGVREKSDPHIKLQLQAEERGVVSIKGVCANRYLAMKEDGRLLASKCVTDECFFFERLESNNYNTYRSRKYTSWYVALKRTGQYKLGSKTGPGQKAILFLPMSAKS
# recombinant human FGF1 (human), sequence (P05230 16-155 limits assumed): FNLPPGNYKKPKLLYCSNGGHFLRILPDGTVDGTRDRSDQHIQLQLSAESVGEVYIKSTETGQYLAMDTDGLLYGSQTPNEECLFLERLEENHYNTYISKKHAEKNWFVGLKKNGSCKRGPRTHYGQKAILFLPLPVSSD
# human FGFR1-Fc (R&D Systems), sequence (P11362 22-376): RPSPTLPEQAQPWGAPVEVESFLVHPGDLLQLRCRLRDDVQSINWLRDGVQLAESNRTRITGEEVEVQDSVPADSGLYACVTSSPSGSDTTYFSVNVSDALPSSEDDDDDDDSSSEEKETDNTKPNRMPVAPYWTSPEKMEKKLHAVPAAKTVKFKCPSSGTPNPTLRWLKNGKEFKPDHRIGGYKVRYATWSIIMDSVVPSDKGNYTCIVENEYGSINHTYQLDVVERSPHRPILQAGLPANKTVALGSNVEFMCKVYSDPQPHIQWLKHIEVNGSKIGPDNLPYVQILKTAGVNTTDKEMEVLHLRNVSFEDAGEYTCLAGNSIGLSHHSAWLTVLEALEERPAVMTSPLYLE
Substance,"Proliferation IC50, FGF-9-stimulated HCO osteoblasts (3H-thymidine) [1] [nM]","Proliferation IC50, FGF8b-stimulated LNCap cells (3H-thymidine) [2] [nM]","IC50, FGF-stimulated HUVEC proliferation (3H-thymidine) [3] [nM]","IC50, FGF-stimulated HUVEC proliferation (3H-thymidine) [4] [nM]","IC50, FGF-stimulated HUVEC proliferation (3H-thymidine) [5] [nM]","IC50, FGF-stimulated HUVEC proliferation (3H-thymidine) [6] [nM]",IC50 [7] [nM],IC50 [8] [nM],koff [9] [s⁻¹]
human FGFR3-Fc (R&D Systems) (from UniProt P22607 23-375) (Fc fusion),0.44,0.79,0.53,5.5,1.06,9.96,30.1,23.4,
"FGFR2alphaIIIc(145-377)(S252W) Fc5, truncated FGFR2-Fc S252W (A2560F) (Fc fusion)",,0.01,,,,,,,
human FGFR2-Fc (R&D Systems) (from UniProt P21802 22-377) (Fc fusion),0.49,0.29,0.42,0.85,0.48,0.3,,,
"FGFR2alphaIIIc(145-377) Fc5, truncated FGFR2-Fc (A2559F) (Fc fusion)",,0.3,,,,,,,

# Further lines, results first:
"Proliferation IC50, FGF-9-stimulated HCO osteoblasts (3H-thymidine) [1] [nM]","Proliferation IC50, FGF8b-stimulated LNCap cells (3H-thymidine) [2] [nM]","IC50, FGF-stimulated HUVEC proliferation (3H-thymidine) [3] [nM]","IC50, FGF-stimulated HUVEC proliferation (3H-thymidine) [4] [nM]","IC50, FGF-stimulated HUVEC proliferation (3H-thymidine) [5] [nM]","IC50, FGF-stimulated HUVEC proliferation (3H-thymidine) [6] [nM]",IC50 [7] [nM],IC50 [8] [nM],koff [9] [s⁻¹],Substance
,0.01,,,,,,,,"FGFR2alphaIIIc(145-377)(P253R) Fc5, truncated FGFR2-Fc P253R (A2561F) (Fc fusion)"
,,,,,,,,0.0002,VEGFR-2-Fc5 (from UniProt P0DOX5 218-449) (Fc fusion)
1.1,,0.63,0.92,0.53,0.42,,,,human FGFR1-Fc (R&D Systems) (from UniProt P11362 22-376) (Fc fusion)
